How the values were obtained:
[1] = molecular target: T1, histidine-tagged human uPAR (Sino#10925-H08H) (human, UniProt Q03405 23-303); test: BLI (Octet), uPAR on sensor, antibody in solution (avidity)
T1 construct: also called uPAR-His

biotinylated human uPAR [2] = molecular target: T2, biotinylated human uPAR (human, UniProt Q03405 23-303, limits assumed, biotinylated (site not stated)); test: BLI (Octet) competition on biotinylated human uPAR; competitor (first antibody): M5
[3] = molecular target: Human uPAR DII-DIII domain HisAvi Tag (human, biotinylated (site not stated)); test: BLI (Octet), biotinylated domain on SA sensor, antibody 200 nM
biotinylated human uPAR [4] = molecular target: T2, biotinylated human uPAR; test: BLI (Octet) competition on biotinylated human uPAR; competitor (first antibody): M1
mouse uPAR on cells [5] = molecular target: T3, mouse uPAR on cells (mouse, UniProt P35456 24-298); test: flow cytometry, HEK293 cells expressing mouse uPAR, 100 nM uPA present
T3 construct: whole, on cells; also called Ms-uPAR; mouse uPAR (CD87)
T3 sequence (looked up): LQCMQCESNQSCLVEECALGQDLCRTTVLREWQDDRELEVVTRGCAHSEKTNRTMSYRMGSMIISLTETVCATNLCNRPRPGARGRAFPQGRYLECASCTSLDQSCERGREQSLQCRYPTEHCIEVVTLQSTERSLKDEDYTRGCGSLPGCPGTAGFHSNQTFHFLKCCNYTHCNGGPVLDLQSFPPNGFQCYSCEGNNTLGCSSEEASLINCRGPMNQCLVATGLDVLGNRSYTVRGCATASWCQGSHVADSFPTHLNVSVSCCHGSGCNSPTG

biotinylated human uPAR [6] = molecular target: T2, biotinylated human uPAR; test: BLI (Octet) competition on biotinylated human uPAR; competitor (first antibody): ATN-368 (ATN-658)
[7] = molecular target: T1, histidine-tagged human uPAR …; test: BLI (Octet), antibody on anti-mouse Fc sensor, uPAR in solution
biotinylated human uPAR [8] = molecular target: T2, biotinylated human uPAR; test: BLI (Octet) on biotinylated human uPAR; row 'None': no first antibody
[9] = molecular target: T4, human uPAR expressed on HEK293 cells (human, UniProt Q03405 23-305); test: flow cytometry, HEK293 cells expressing human uPAR, 100 nM uPA present
T4 construct: whole, on cells; also called Hu-uPAR

[10] = molecular target: T5, IL-2/IL-15 receptor on HH cells (human); test: cell-based or functional assay
T5 chain 1: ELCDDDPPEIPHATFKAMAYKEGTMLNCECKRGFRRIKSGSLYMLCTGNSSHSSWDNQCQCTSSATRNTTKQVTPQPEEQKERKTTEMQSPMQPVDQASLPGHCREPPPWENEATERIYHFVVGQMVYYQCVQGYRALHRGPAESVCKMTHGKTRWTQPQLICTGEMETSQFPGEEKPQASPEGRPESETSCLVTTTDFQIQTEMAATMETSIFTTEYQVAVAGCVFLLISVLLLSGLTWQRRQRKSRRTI
T5 chain 2: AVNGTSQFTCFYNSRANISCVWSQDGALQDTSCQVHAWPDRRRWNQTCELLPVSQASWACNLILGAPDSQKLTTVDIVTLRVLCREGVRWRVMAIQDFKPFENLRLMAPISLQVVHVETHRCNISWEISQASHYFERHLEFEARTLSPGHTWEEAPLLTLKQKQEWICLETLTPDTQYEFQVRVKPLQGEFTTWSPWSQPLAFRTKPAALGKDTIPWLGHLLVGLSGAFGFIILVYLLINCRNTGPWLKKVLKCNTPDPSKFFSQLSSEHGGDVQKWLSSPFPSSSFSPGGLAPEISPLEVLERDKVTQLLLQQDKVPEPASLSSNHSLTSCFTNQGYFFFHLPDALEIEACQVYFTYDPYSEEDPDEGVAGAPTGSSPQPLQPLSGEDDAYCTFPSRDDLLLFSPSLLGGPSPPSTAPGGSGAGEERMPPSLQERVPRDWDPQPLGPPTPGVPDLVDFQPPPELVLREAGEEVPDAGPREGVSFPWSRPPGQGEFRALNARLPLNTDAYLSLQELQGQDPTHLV
T5 chain 3: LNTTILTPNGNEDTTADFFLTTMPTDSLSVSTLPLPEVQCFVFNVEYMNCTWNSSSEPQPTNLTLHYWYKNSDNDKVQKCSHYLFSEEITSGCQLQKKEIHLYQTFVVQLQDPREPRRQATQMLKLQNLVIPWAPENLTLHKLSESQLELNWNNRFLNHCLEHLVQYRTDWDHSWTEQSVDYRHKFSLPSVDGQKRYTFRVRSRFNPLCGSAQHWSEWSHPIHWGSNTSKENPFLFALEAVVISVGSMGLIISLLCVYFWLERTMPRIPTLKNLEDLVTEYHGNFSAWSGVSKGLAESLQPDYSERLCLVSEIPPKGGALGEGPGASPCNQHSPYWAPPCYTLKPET

mouse uPAR on cells [11] = molecular target: T3, mouse uPAR on cells; test: flow cytometry on EMT6 cells (express mouse uPAR), anti-His detection
mouse uPAR on cells [12] = molecular target: T3, mouse uPAR on cells; test: flow cytometry on CT26 cells (express mouse uPAR), anti-His detection
[13] = molecular target: T6, Recombinant mouse uPAR-Fc (R&D Systems, Cat. No. 531-PA-100) (mouse, UniProt P35456 24-297, limits assumed); test: SPR (Biacore), mouse uPAR-Fc captured on anti-human antibody chip
T6 construct: not shown: Fc of the bought fusion (captured with the human antibody capture kit); not described
T6 sequence (looked up): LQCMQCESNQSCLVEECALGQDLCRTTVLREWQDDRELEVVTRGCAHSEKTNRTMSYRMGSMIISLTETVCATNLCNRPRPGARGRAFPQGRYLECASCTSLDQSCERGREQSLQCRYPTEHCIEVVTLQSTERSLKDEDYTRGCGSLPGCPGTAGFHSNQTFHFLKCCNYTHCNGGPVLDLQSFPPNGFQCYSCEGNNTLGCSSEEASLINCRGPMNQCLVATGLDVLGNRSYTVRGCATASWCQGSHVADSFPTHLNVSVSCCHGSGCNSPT

[14] = molecular target: human 4-1BB on 4-1BB effector cells (human, UniProt Q07011 24-255); test: cell-based or functional assay
human 4-1BB on 4-1BB effector cells, sequence (Q07011 24-255): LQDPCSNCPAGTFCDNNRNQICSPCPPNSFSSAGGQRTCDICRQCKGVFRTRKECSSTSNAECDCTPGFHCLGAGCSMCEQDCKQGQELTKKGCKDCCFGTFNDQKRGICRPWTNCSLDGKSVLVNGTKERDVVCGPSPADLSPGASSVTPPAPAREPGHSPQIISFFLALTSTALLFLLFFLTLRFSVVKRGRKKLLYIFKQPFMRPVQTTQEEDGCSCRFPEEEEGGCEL

mouse uPAR on cells [15] = molecular target: T3, mouse uPAR on cells; test: flow cytometry on MC38 cells (express mouse uPAR), anti-His detection
mouse uPAR on cells [16] = molecular target: T3, mouse uPAR on cells; test: flow cytometry on 4T1 cells (express mouse uPAR), anti-His detection
[17] = molecular target: Recombinant human uPAR his (R&D Systems, 807-UK-100/CF) (human, UniProt Q03405 23-303, biotinylated (sites not given)); test: SPR (Biacore), biotinylated human uPAR his on streptavidin chip

Binder	Kd [1]	koff [1]	kon [1]	response in competition assay (biotinylated human uPAR [2])	binding result [3]	response in competition assay (biotinylated human uPAR [4])	EC50 (mouse uPAR on cells [5])	response in competition assay (biotinylated human uPAR [6])	Kd [7]	koff [7]	kon [7]	response in competition assay (biotinylated human uPAR [8])	EC50 [9]	EC50 (mouse uPAR on cells [12])	also measured
M8 (antibody, V domains shown, Mouse hybridoma antibody; also called anti-uPAR antibody M8; parental M8) VH: QIQLVQSGPELKKPGETVKISCKASGNTFTDYGMNWVKQSPGKGLKWMGWINTNTGEPTYADDFKGRFAFSLETSASTAYLQINNLKNEDMATYFCAHYSFDYWGQGTTLTVSS VL: DIQMTQSPASLSVSVGQTVTITCRTSENIYSNLAWYQQKPGKSPQLLVYAATNLADGVPSRFSGSGSGTQYSLKINSLQSEDFGSYYCQHFWGTPWTFGGGTKLEIK	< 1 pM	< 1e-07 s⁻¹	311000 M⁻¹ s⁻¹	0.321	binds	0.302	31400 pM	0.31	1080 pM	0.00063 s⁻¹	584000 M⁻¹ s⁻¹	0.284	540 pM		
Human cpIL-2:IL-2Ra:Human uPA-ATF (N22Y, W30R)-His6 (other, also called 110) SKNFHLRPRDLISNINVIVLELKGSETTFMCEYADETATIVEFLNRWITFSQSIISTLTGGSSSTKKTQLQLEHLLLDLQMILNGINNYKNPKLTRMLTFKFYMPKKATELKHLQCLEEELKPLEEVLNLAQGSGGGSELCDDDPPEIPHATFKAMAYKEGTMLNCECKRGFRRIKSGSLYMLCTGNSSHSSWDNQCQCTSSATRNTTKQVTPQPEEQKERKTTEMQSPMQPVDQASLPGHCREPPPWENEATERIYHFVVGQMVYYQCVQGYRALHRGPAESVCKMTHGKTRWTQPQLICTGGGSGGSNELHQVPSNCDCLNGGTCVSYKYFSNIHRCNCPKKFGGQHCEIDKSKTCYEGNGHFYRGKASTDTMGRPCLPWNSATVLQQTYHAHRSDALQLGLGKHNYCRNPDNRRRPWCYVQVGLKPLVQECMVHDCAHHHHHH														1400 pM	pSTAT5 EC50, HH cells [10]: 1.6 nM; EC50 (mouse uPAR on cells [11]): 540 pM; Kd [13]: 120 pM; koff [13]: 0.00023 s⁻¹; kon [13]: 1.9e+06 M⁻¹ s⁻¹
M5 (antibody, V domains shown, Mouse hybridoma antibody; also called anti-uPAR antibody M5; parental M5) VH: QVQLKESGPGLVAPSQSLSITCTVSGFSLTNYGVHWVRQPPGKDLEWLVVIWSDGGTTYNSALKSRLSISKDNSKSQVFLKMNSLQTDDTAMYYCARGGRSDLFAYWGQGTLVTVSA VL: DVLMTQTPLSLPVSLGDQASISCRSSQSIVHSNGNTYLEWYLQKPGQSPKLLIYKVSNRFSGVPDRFSGSGSGTDFTLKISRVEAEDLGVYYCFQGSHVPYTFGGGTKLEIK	< 1 pM	< 1e-07 s⁻¹	28300 M⁻¹ s⁻¹	-0.0173	binds	0.161	93800 pM	0.179	33100 pM	0.000962 s⁻¹	29100 M⁻¹ s⁻¹	0.181	2530 pM		
Linked human 4-1BBL Trimer: Human uPA-ATF (other) SNELHQVPSNCDCLNGGTCVSNKYFSNIHWCNCPKKFGGQHCEIDKSKTCYEGNGHFYRGKASTDTMGRPCLPWNSATVLQQTYHAHRSDALQLGLGKHNYCRNPDNRRRPWCYVQVGLKPLVQECMVHDCAGGSGGREGPELSPDDPAGLLDLRQGMFAQLVAQNVLLIDGPLSWYSDPGLAGVSLTGGLSYKEDTKELVVAKAGVYYVFFQLELRRVVAGEGSGSVSLALHLQPLRSAAGAAALALTVDLPPASSEARNSAFGFQGRLLHLSAGQRLGVHLHTEARARHAWQLTQGATVLGLFRVTPEIPAGLPSPRSEGSGREGPELSPDDPAGLLDLRQGMFAQLVAQNVLLIDGPLSWYSDPGLAGVSLTGGLSYKEDTKELVVAKAGVYYVFFQLELRRVVAGEGSGSVSLALHLQPLRSAAGAAALALTVDLPPASSEARNSAFGFQGRLLHLSAGQRLGVHLHTEARARHAWQLTQGATVLGLFRVTPEIPAGLPSPRSEGSGREGPELSPDDPAGLLDLRQGMFAQLVAQNVLLIDGPLSWYSDPGLAGVSLTGGLSYKEDTKELVVAKAGVYYVFFQLELRRVVAGEGSGSVSLALHLQPLRSAAGAAALALTVDLPPASSEARNSAFGFQGRLLHLSAGQRLGVHLHTEARARHAWQLTQGATVLGLFRVTPEIPAGLPSPRSE															EC50, luciferase 4-1BB Bioassay [14]: 100 pM; Emax (luciferase units), 4-1BB Bioassay [14]: 330000 luciferase units
Human uPA-ATF:His6 (ligand, also called 103) SNELHQVPSNCDCLNGGTCVSNKYFSNIHWCNCPKKFGGQHCEIDKSKTCYEGNGHFYRGKASTDTMGRPCLPWNSATVLQQTYHAHRSDALQLGLGKHNYCRNPDNRRRPWCYVQVGLKPLVQECMVHDCAHHHHHH														1100 pM	EC50 (mouse uPAR on cells [15]): 420 pM; EC50 (mouse uPAR on cells [16]): 220 pM; Kd [17]: 240 pM; koff [17]: 0.00035 s⁻¹; kon [17]: 1.5e+06 M⁻¹ s⁻¹

From US20220340678A1 (MURAL ONCOLOGY, published 2022)
